Six molecules from patent US20250073311A1, “DOSAGE REGIME” (ZEALAND PHARMA A/S, priority 2021, published 2025) can be followed below.

Numbered stars: 1 amine (or outer) side, 2 acyl side, 3 side chain; on linkers, the order of the positions; unused ones are H or OH. Square brackets hold non-standard residues; d marks the D form. Side chains are listed from the residue outwards. Ends that are not written are not given here. Peptide text beside a SMILES is read from it. * marks the point of attachment. C20 diacid = O=C(O)CCCCCCCCCCCCCCCCCCC(=O)*; C18 diacid = O=C(O)CCCCCCCCCCCCCCCCC(=O)*; γGlu = O=C(O)[C@H](CCC(=O)[*:2])N[*:1]; AEEA = NCCOCCOCC(=O)O; Aib = CC(C)(N)C(=O)O

One test addresses T1, human GLP-1 receptor (Homo sapiens, UniProt P43220).
T1 construct: expressed in transfected cells
Put plainly: GLP-1 receptor potency assay (cAMP AlphaScreen). The class given is cell-based. The settings on record: HEK293 cells expressing human GLP-1R, cAMP response.

The target of the next test is T2, human GLP-2 receptor (Homo sapiens, UniProt O95838, D470N).
T2 sequence (O95838 1-553 D470N): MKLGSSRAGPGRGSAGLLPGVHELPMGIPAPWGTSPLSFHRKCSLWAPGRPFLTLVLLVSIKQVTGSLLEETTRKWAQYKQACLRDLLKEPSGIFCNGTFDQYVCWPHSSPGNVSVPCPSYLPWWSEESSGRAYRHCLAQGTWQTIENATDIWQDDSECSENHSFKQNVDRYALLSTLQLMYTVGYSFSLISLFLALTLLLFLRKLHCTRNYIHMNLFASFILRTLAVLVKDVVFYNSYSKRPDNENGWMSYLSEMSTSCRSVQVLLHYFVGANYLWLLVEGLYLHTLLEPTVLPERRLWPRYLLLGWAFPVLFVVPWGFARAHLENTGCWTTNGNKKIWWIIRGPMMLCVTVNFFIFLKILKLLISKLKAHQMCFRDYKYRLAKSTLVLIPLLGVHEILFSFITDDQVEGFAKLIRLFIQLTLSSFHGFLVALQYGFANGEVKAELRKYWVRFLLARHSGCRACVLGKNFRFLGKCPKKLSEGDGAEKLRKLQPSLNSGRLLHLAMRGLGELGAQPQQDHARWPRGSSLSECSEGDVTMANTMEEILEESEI
Nature of the test: GLP-2 receptor potency assay (cAMP AlphaScreen). Type of test: cell-based. The settings on record: HEK293 cells expressing human GLP-2R, cAMP response; N/A = no detectable activity. An excerpt:
The hGLP2-R was purchased from MRC-geneservice, Babraham, Cambridge as an Image clone: 5363415 (11924-117). For subcloning into a mammalian expression vector, primers for subcloning were obtained from DNA-Technology, Risskov, Denmark. The 5′ and 3′ primers used for the PCR reaction include terminal restriction sites for cloning and the context of the 5′ primer is modified to a Kozak consensus without changing the sequence of the product encoded by the ORF. A standard PCR reaction was run using Image clone 5363415 (11924-117) as a template with the above mentioned primers and Polymerase Herculase II Fusion in a total vol. of 50 μl. The generated PCR product was purified using GFX PCR and Gel band purification kit, digested with restriction enzymes and cloned into the mammalian expression vector using Rapid DNA Ligation Kit. Ligation reaction was transformed to XL10 Gold Ultracompetent cells and colonies were picked for DNA production using Endofree Plasmid maxi kit. Subsequent sequence analysis was conducted by MWG Eurofins, Germany.
HEK293 cells were transfected using the Lipofectamine PLUS transfection method. The day before transfection, HEK293 cells were seeded in two T75 flasks at a density of 2×10^6 cells/T75 flask in cell culturing medium without antibiotics. […] Following 4 weeks in G418 selection, clones were picked and tested in a functional GLP-2 receptor potency assay as described below.
Data from test compounds eliciting an increase in the intracellular level of cAMP were normalized relative to the positive and negative control (vehicle) to calculate the EC50 and maximal response from the concentration response curve.

Test [1] concerns the target T3, human GLP-2 receptor (hGLP2-R) (human, UniProt O95838).
T3 sequence: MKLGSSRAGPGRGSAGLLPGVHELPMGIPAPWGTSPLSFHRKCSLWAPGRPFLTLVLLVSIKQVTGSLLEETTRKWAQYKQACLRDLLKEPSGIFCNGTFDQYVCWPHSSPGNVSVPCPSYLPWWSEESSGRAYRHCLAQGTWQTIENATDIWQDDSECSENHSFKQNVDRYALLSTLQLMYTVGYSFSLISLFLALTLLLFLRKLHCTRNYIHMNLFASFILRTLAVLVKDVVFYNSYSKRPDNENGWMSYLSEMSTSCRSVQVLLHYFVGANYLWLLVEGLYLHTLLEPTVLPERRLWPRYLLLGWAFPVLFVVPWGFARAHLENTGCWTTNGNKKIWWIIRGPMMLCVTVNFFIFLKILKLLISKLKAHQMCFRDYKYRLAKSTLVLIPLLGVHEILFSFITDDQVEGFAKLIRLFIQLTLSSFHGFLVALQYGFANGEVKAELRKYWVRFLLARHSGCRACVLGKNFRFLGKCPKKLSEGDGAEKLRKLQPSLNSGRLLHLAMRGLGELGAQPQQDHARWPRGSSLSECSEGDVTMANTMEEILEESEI

In test [2] the target is human glucagon-like peptide 1 receptor (GLP-1R) (human) (UniProt P43220).
Test [3] has as its target human GLP-2 receptor (hGLP2-R) (human) (UniProt O95838).

T1 sequence (P43220 24-463): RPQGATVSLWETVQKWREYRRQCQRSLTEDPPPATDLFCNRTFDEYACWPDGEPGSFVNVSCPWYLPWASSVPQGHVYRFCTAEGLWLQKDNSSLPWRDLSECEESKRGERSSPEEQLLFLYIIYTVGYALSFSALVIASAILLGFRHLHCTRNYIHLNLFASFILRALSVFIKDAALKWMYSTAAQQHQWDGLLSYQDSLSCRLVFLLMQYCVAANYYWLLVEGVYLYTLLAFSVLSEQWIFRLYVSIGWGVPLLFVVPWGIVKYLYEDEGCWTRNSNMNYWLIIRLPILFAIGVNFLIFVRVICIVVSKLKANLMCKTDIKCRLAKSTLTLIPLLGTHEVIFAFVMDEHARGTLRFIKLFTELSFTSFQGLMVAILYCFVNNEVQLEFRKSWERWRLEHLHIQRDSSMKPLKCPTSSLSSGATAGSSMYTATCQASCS
Source text for human GLP-1 receptor: The cDNA encoding the human glucagon-like peptide 1 receptor (GLP-1R) (primary accession number P43220) was cloned from the cDNA BC112126(MGC:138331/IMAGE:8327594). The DNA encoding the GLP-1-R was amplified by PCR using primers encoding terminal restriction sites for subcloning. The 5′-end primers additionally encoded a near Kozak consensus sequence to ensure efficient translation. The fidelity of the DNA encoding the GLP-1-R was confirmed by DNA sequencing. The PCR products encoding the GLP-1-R were subcloned into a mammalian expression vector containing a neomycin (G418) resistance marker. The mammalian expression vectors encoding the GLP-1-R were transfected into HEK293 cells by a standard calcium phosphate transfection method. 48 hours post- transfection, cells were seeded for limited dilution cloning and selected with 1 mg/ml G418 in the culture medium. Following 3 weeks in G418 selection clones were picked and tested in a functional GLP-1 receptor potency assay as described below. One clone was selected for use in compound profiling.
GLP-1R and GLP-2 receptor potency assays.
The cAMP AlphaScreen® assay from Perkin Elmer was used to quantitate the cAMP response to activation of the GLP1 and GLP2 receptor, respectively. […]

Take `CC[C@H](C)[C@H](NC(=O)[C@H](Cc1ccccc1)NC(=O)[C@H](CC(=O)O)NC(=O)[C@H](CCCCNC(=O)COCCOCCNC(=O)[C@H](CCCCN)NC(=O)[C@H](CCC(=O)O)NC(=O)[C@H](CCCCN)NC(=O)CC[C@H](NC(=O)CCCCCCCCCCCCCCCCCCC(=O)O)C(=O)O)NC(=O)[C@H](C)NC(=O)[C@H](C)NC(=O)[C@H](CCC(N)=O)NC(=O)[C@H](CCC(=O)O)NC(=O)[C@H](CC(=O)O)NC(=O)[C@H](CC(C)C)NC(=O)[C@@H](NC(=O)[C@@H](NC(=O)[C@H](C)NC(=O)[C@H](CC(C)C)NC(=O)[C@H](CCC(=O)O)NC(=O)[C@H](CO)NC(=O)[C@@H](NC(=O)[C@H](Cc1ccccc1)NC(=O)[C@H](CO)NC(=O)CNC(=O)[C@H](CCC(=O)O)NC(=O)C(C)(C)NC(=O)[C@@H](N)Cc1c[nH]cn1)[C@@H](C)O)[C@@H](C)O)[C@@H](C)CC)C(=O)N[C@@H](C)C(=O)N[C@@H](Cc1c[nH]c2ccccc12)C(=O)N[C@@H](CC(C)C)C(=O)N[C@H](C(=O)N[C@@H](CCC(=O)O)C(=O)N[C@@H](Cc1c[nH]cn1)C(=O)N[C@@H](CCCCN)C(=O)N[C@H](C(=O)N[C@H](C(=O)N[C@@H](CC(=O)O)C(=O)O)[C@@H](C)O)[C@@H](C)CC)[C@@H](C)CC` [Compound 64] (H-H[Aib]EGSFTSELATILDEQAAK([AEEA-Lys-Glu-Lys-γGlu-C20 diacid])DFIAWLIEHKITD-OH): the concentration giving a half-maximal response (EC50) at human GLP-1 receptor worked out at 0.49 nM; at human GLP-2 receptor, 0.2 nM. For “Teduglutide (from UniProt P01275) (peptide)”, the EC50 GLP-2 (nM), cAMP AlphaScreen in test [1] stood at 0.027 nM. The EC50 GLP-1 (nM), cAMP AlphaScreen in test [2] amounted to 39 nM. On human GLP-2 receptor, `CC[C@H](C)[C@H](NC(=O)[C@H](Cc1ccccc1)NC(=O)[C@H](CC(=O)O)NC(=O)[C@H](CCCNC(=N)N)NC(=O)[C@H](C)NC(=O)[C@H](C)NC(=O)[C@H](CCC(N)=O)NC(=O)[C@H](CCC(=O)O)NC(=O)[C@H](CC(=O)O)NC(=O)[C@H](CC(C)C)NC(=O)[C@@H](NC(=O)[C@@H](NC(=O)[C@H](C)NC(=O)[C@H](CCCCNC(=O)COCCOCCNC(=O)[C@H](CCCCN)NC(=O)[C@H](CCC(=O)O)NC(=O)[C@H](CCCCN)NC(=O)CC[C@H](NC(=O)CCCCCCCCCCCCCCCCCCC(=O)O)C(=O)O)NC(=O)[C@H](CCC(=O)O)NC(=O)[C@H](CO)NC(=O)[C@@H](NC(=O)[C@H](Cc1ccccc1)NC(=O)[C@H](CO)NC(=O)CNC(=O)[C@H](CCC(=O)O)NC(=O)C(C)(C)NC(=O)[C@@H](N)Cc1c[nH]cn1)[C@@H](C)O)[C@@H](C)O)[C@@H](C)CC)C(=O)N[C@@H](C)C(=O)N[C@@H](Cc1c[nH]c2ccccc12)C(=O)N[C@@H](CC(C)C)C(=O)N[C@H](C(=O)N[C@@H](CCC(=O)O)C(=O)N[C@@H](Cc1c[nH]cn1)C(=O)N[C@@H](CCCCN)C(=O)N[C@H](C(=O)N[C@H](C(=O)N[C@@H](CC(=O)O)C(=O)O)[C@@H](C)O)[C@@H](C)CC)[C@@H](C)CC` [Compound 53] (H-H[Aib]EGSFTSEK([AEEA-Lys-Glu-Lys-γGlu-C20 diacid])ATILDEQAARDFIAWLIEHKITD-OH) gave an EC50 of 0.24 nM.

Take `CC[C@H](C)[C@H](NC(=O)[C@H](Cc1ccccc1)NC(=O)[C@H](CC(=O)O)NC(=O)[C@H](CCCNC(=N)N)NC(=O)[C@H](C)NC(=O)[C@H](C)NC(=O)[C@H](CCCCNC(=O)COCCOCCNC(=O)COCCOCCNC(=O)[C@H](CCCCN)NC(=O)[C@H](CCC(=O)O)NC(=O)[C@H](CCCCN)NC(=O)CC[C@H](NC(=O)CCCCCCCCCCCCCCCCCCC(=O)O)C(=O)O)NC(=O)[C@H](C)NC(=O)[C@H](CC(=O)O)NC(=O)[C@H](CC(C)C)NC(=O)[C@@H](NC(=O)[C@@H](NC(=O)[C@H](C)NC(=O)[C@H](CC(C)C)NC(=O)[C@H](CCC(=O)O)NC(=O)[C@H](CO)NC(=O)[C@@H](NC(=O)[C@H](Cc1ccccc1)NC(=O)[C@H](CO)NC(=O)CNC(=O)[C@H](CCC(=O)O)NC(=O)C(C)(C)NC(=O)[C@@H](N)Cc1c[nH]cn1)[C@@H](C)O)[C@@H](C)O)[C@@H](C)CC)C(=O)N[C@@H](C)C(=O)N[C@@H](Cc1c[nH]c2ccccc12)C(=O)N[C@@H](CC(C)C)C(=O)N[C@H](C(=O)N[C@@H](CCC(=O)O)C(=O)N[C@@H](Cc1c[nH]cn1)C(=O)N[C@@H](CCCCN)C(=O)N[C@H](C(=O)N[C@H](C(=O)N[C@@H](CC(=O)O)C(=O)O)[C@@H](C)O)[C@@H](C)CC)[C@@H](C)CC` [Compound 63] (H-H[Aib]EGSFTSELATILDAK([AEEA-AEEA-Lys-Glu-Lys-γGlu-C20 diacid])AARDFIAWLIEHKITD-OH): the EC50 was found to be 0.31 nM at human GLP-1 receptor and 0.17 nM on human GLP-2 receptor.

B1: reference compound B (peptide)
chain: H[Aib]EGSFSSELATILDK([γGlu-C18 diacid])QAARDFIAWLIQHKITD
modifications: ends and bridges not checked
In the case of B1, in test [3], the EC50 GLP-2 (nM), cAMP AlphaScreen worked out at 0.28 nM. In addition, the EC50 GLP-1 (nM), cAMP AlphaScreen in test [2] was determined as 3.9 nM.

B2: reference compound A (peptide)
chain: H[Aib]DGSFSSELATILDK([γGlu-C18 diacid])QAARDFIAWLIQHKITD
modifications: ends and bridges not checked
B2: in test [3], the EC50 GLP-2 (nM), cAMP AlphaScreen worked out at 0.083 nM. The EC50 GLP-1 (nM), cAMP AlphaScreen in test [2] stood at 0.49 nM.
